In article PMC4072508, “Genome-Wide Prediction and Validation of Peptides That Bind Human Prosurvival Bcl-2 Proteins” (PLoS Computational Biology, 2014):

What was measured:
Mcl-1 [1] = biological target: T1, Mcl-1 (Homo sapiens, UniProt Q07820); settings: read-out: Binder class, Mcl-1; S1 Bim variants, specific binding measured using yeast display; ref Dutta et al. (2010); cited from earlier work
T1 construct: myc-Mcl-1 SPOT array & FP; made in house
Text: Negative control mutatio ...

Mcl-1 [2] = biological target: T1, Mcl-1; experiment: LUMIER full-length protein interaction; assay type: binding; settings: LUMIER results for Mcl-1, Z-score relative to Gaussian fit of the data; for z-score 1.2: experiment 1, duplicate 2; for z-score 2.1: experiment 2, duplicate 1; for z-score 2.2: experiment 2, duplicate 2
Method: (§1) The LUMIER assay was carried out as previously described with the following modifications. A stable cell line expressing receptor tagged on the N-terminus with Nanoluc luciferase was created (the prey). […] Each bait construct was transfected into the receptor-luciferase cells in a 96-well format and after 48 hours the cells were lysed and transferred to 384-well plates coated with anti-FLAG. After incubation and washing, luminescence was measured to quantify how much receptor-luciferase was captured by the bait protein. Anti-Flag ELISA signal was used to exclude bait proteins that were not expressed. The experiment was carried out two times, each in duplicate.

Bcl-xL = biological target: T2, Bcl-xL (Homo sapiens, UniProt Q07817); experiment: LUMIER full-length protein interaction; assay type: binding; settings: LUMIER results for Bcl-xL; for z-score 1.1: experiment 1, duplicate 1; for z-score 1.2: experiment 1, duplicate 2; for z-score 2.1: experiment 2, duplicate 1; for z-score 2.2: experiment 2, duplicate 2
T2 construct: myc-Bcl-xL SPOT array & FP; made in house
T2 sequence (Q07817 with tags, fused parts or gaps): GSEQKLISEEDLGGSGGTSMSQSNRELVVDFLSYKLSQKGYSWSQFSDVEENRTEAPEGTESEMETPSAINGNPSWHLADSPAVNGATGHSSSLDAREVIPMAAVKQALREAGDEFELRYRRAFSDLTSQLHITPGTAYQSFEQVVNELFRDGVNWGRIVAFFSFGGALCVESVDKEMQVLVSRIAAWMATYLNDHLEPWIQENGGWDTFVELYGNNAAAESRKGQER
Method: as §1

[3] = Z-score relative to Gaussian fit of the data
[4] = Z-score of the interaction relative to the Gaussian fit of the data

T1 sequence (Q07820 with tags, fused parts or gaps): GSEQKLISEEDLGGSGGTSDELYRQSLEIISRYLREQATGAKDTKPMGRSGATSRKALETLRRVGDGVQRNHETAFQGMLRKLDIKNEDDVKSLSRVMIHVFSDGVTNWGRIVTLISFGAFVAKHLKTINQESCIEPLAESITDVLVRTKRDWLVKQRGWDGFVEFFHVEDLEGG

Row | Substance | Kd (Mcl-1 [1]) [nM] | z-score 1.2 (Mcl-1 [2]) | z-score 2.1 (Mcl-1 [2]) | z-score 2.2 (Mcl-1 [2]) | z-score 1.1 (Bcl-xL; [3]) | z-score 1.2 (Bcl-xL; [3]) | z-score 2.1 (Bcl-xL; [3]) | z-score 2.2 (Bcl-xL; [3]) | z-score 1.1 (Bcl-xL; [4]) | z-score 1.2 (Bcl-xL; [4]) | z-score 2.1 (Bcl-xL; [4]) | z-score 2.2 (Bcl-xL; [4])
1 | PEIWIAQEFQRAGDEYNAYYARR | > 10000 |  |  |  |  |  |  |  |  |  |  | 
2 | PEIWIAQEFQRNGDEYNAYYARR | > 10000 |  |  |  |  |  |  |  |  |  |  | 
3 | PEIWIAQEIDRIGDEFNAYYARR | < 1000 |  |  |  |  |  |  |  |  |  |  | 
4 | PEIWIAQEIDRIGDETNAYYARR | < 1000 |  |  |  |  |  |  |  |  |  |  | 
5 | PEIWIAQEIDRIGDEVNAYYARR | < 1000 |  |  |  |  |  |  |  |  |  |  | 
6 | PEIWIAQEIDRIGNEINAYYARR | < 1000 |  |  |  |  |  |  |  |  |  |  | 
7 | PEIWIAQEIGRIGDETNAYYARR | < 1000 |  |  |  |  |  |  |  |  |  |  | 
8 | PEIWIAQEIGRIGNEVNAYYARR | < 1000 |  |  |  |  |  |  |  |  |  |  | 
9 | PEIWIAQEIGRTGDEVNAYYARR | < 1000 |  |  |  |  |  |  |  |  |  |  | 
10 | PEIWIAQEINRVGDEINAYYARR | < 1000 |  |  |  |  |  |  |  |  |  |  | 
11 | PEIWIAQEIRRIGEEYNAYYARR | < 1000 |  |  |  |  |  |  |  |  |  |  | 
12 | PEIWIAQELGRNGDEFNAYYARR | > 10000 |  |  |  |  |  |  |  |  |  |  | 
13 | PEIWIAQELQRDGDEYNAYYARR | > 10000 |  |  |  |  |  |  |  |  |  |  | 
14 | PPAT (RLRQLGVAKKFGVLSDNFKGKRIVLV) |  | 0.1831 | -0.6136 | -0.9152 | -0.3811 | 0.4308 | -0.2564 | -0.4829 |  |  |  | 
15 | PRCP (DDMFEPHSWNLKELSDDCFQQWGVRP) |  | 0.7633 | 0.7051 | 0.9311 | -0.9043 | 0.9292 | 0.4444 | 1.668 |  |  |  | 
16 | PRDX4 (LDFTFVCPTEIIAFGDRLEEFRSINT) |  | -0.5708 | -0.006199 | -0.3116 | -0.3595 | -2.173 | -0.3545 | -0.635 |  |  |  | 
17 | PRKD3 (IQENVDISTVYQIFADEVLGSGQFGI) |  | 0.6899 | 3.751 | 3.546 |  |  |  |  | 6.764 | -0.4537 | 1.665 | 5.133
18 | RBL1 (WTLFVYTKGNFRMIGDDLVNSYHLLL) |  | 0.3355 | 1.744 | 0.6936 | 5.112 |  | 2.327 | 1.895 |  |  |  | 
19 | RNF160 (WLKGDILGEKLVNLADCLCNEDLESR) |  | 0.2603 |  | -0.3716 | -0.1237 | 0.7519 | 2.286 | 3.519 |  |  |  | 
20 | SGCA (LFWTPLLVVLLAGLGDTEAQQTTLHP) |  | 1.007 | 0.04852 | -0.477 | 1.122 | 0.5458 | 0.3748 | 0.07051 |  |  |  | 
21 | SIPA1 (TAGLRPGARLLRVCGQTLPSLRPEAA) |  | 0.6268 | -0.03415 | -0.3116 | 0.6815 |  | 3.9688 | 2.046 |  |  |  | 
22 | SMPD2 (PYLSKHRADRMRRLGDFLNQESFDLA) |  | -0.1967 | -0.5316 | -0.9514 | -0.2083 | 2.876 | -0.2736 | 2.724 |  |  |  | 
23 | STK11IP (DSLLWKLAGLLRESGDVVLSGCSTLS) |  | 0.4828 | -0.9757 | -1.0129 | -2.105 | -2.491 | -0.2948 | 0.7075 |  |  |  | 
24 | TAP1 (MSILTIASAVLEFVGDGIYNNTMGHV) |  | -0.7174 | 0.2302 | -0.2533 | 3.909 | -0.1665 | 0.7598 | -0.2 |  |  |  | 
25 | TMEM184C (SDIRDDISEQVRHVGRTVRGHPRKKL) |  | 0.404 | 2.487 | 1.818 | -0.516 | -0.4557 | 0.7398 | 0.3954 |  |  |  | 
26 | TMEM214 (SFLSAHCASHLAWFGDSLTSLSQRLQ) |  | -0.396 |  | -0.9391 | 0.1125 | -0.2947 | -0.2028 | 0.228 |  |  |  | 
27 | TTC31 (DLSSTFVSLALRKVGDWPLSARREKG) |  | -0.2499 | -0.5416 | -0.2181 | 0.5842 | 0.512 | 0.1189 | 0.4568 |  |  |  | 
28 | WDR60 (GGRVKLVHSALIQLGDSLSHKGNEFW) |  | 0.5442 | 0.4209 | 0.563 |  |  |  |  | 4.105 | 0.5337 | -0.08078 | 0.3897
29 | WRAP53 (RKDAELLCWDLRQSGYPLWSLGREVT) |  |  | 1.332 | 1.084 | 0.8939 | -0.01936 | 1.1339 | 1.068 |  |  |  | 
30 | ZNF295 (ERLKGQLCDVLLIVGDQKFRAHKNVL) |  | 0.3792 | -0.9697 | 0.1208 | 0.6872 | -1.979 | 2.441 | -0.4135 |  |  |  | 
